Results: patent US20060177448A1, “Inhibiting HER2 shedding with matrix metalloprotease antagonists” (Genentech, Inc., priority 2005, published 2006)

System: SKBR-3 cells
Test: HER2 ECD ELISA of conditioned media (HER2 shedding), SKBR-3 cells
Format: cell-based, human
Settings: 1 μg/ml
Procedure: BT 474, MCF-7, and SKBR-3 cells were maintained in high-glucose DMEM:Ham's F12 (50:50) supplemented with 10% heat-inactivated FBS and 2 mM L-Glutamine. […] Cell lines were maintained at 37° C. in a humidified incubator supplied with 5% CO2. BT 474 and SKBR-3 cells were transiently transfected with constructs as described by electroporation using kit V according to the manufacturer's instructions (AMAXA™).
Serum was diluted 1:50 using assay buffer (PBS/0.5% BSA, 0.05% TWEEN® 20/10 ppm PROCLIN® 300/0.2% BGG/0.25% CHAPS/0.15 M NaCl/5mM EDTA (pH 7.4) followed by additional 1:2 serial dilutions. Shed HER2 was captured using a goat anti-HER2 polyclonal antibody (Genentech) onto NUNC® Maxisorp plates and detected using a biotin-conjugated rabbit anti-HER2 polyclonal antibody (Genentech) followed by a AMDEX™-strepavidin-horseradish peroxidase antibody (Amersham Pharmacia Biotech) following a procedure described previously (Sias et al., J. Immunol. Meth. 109:219-27 (1990)). For cell culture experiments, cells were treated as indicated and conditioned media was collected and diluted in assay buffer serially 1:2. The concentration of shed HER2 in serum or in conditioned media was determined from a four-parameter fit of a standard curve using purified recombinant HER2 ECD protein (Genentech) as a standard.
The pSIREN shRNA construct(s) or vector alone were transiently transfected into SKBR-3 and BT 474 cells using AMAXA™ kit V following manufacturer's recommendations. After 48 hours, conditioned media was collected and assayed for shed HER2 by HER2 ELISA and the cells were lysed directly on the plate using 2×Sample buffer.

B1: Timp-3: naturally occurring peptides that regulate metalloprotease activity (protein, UniProt P35625 24-211, looked up)
Metalloproteinase inhibitor 3: CTCSPSHPQDAFCNSDIVIRAKVVGKKLVKEGPFGTLVYTIKQMKMYRGFTKMPHVQYIHTEASESLCGLKLEVNKYQYLLTGRVYDGKMYTGLCNFVERWDQLTLSQRKGLNYRYHLGCNCKIKSCYYLPCFVTSKNECLWTDMLSNFGYPGYQSKHYACIRQKGGYCSWYRGWAPPDKSIINATDP
- HER2 ECD levels in conditioned media: reduced HER2 ECD levels
